Test results as given in publication PMC8653789.

Assays:
Assay in all cases: AlphaScreen or HTRF
[1] = biological target: H3K4me2/H4K12ac nucleosome (UniProt P04908)
[2] = biological target: H3K4me1/H4K12ac nucleosome (UniProt P04908)
[3] = biological target: H3K4me3/H4K12ac nucleosome (UniProt P04908)

| Substance | fold reduction of binding relative to wild type [1] | fold reduction of binding relative to wild type [2] | fold reduction of binding relative to wild type [3] |
| --- | --- | --- | --- |
| PHIP Tudor–BD1–BD2 R1310C (from UniProt Q8WWQ0 940-1434) (domain or fragment) | > 4 fold | > 4 fold | – |
| PHIP Tudor–BD1–BD2 R1402S (from UniProt Q8WWQ0 940-1434) (domain or fragment) | > 10 fold | > 10 fold | > 10 fold |
| PHIP Tudor–BD1–BD2 W1156L (from UniProt Q8WWQ0 940-1434) (domain or fragment) | > 3 fold | > 3 fold | – |
